{
  "source": "patent US20190177410A1",
  "about": "(Regeneron, published 2019)",
  "experiment_in_all_cases": "cell-based or functional assay",
  "key": {"[1]": {"target": "T1, full-length human APLNR (hAPLNR) (human, UniProt P35414 1-380)", "T1 sequence": "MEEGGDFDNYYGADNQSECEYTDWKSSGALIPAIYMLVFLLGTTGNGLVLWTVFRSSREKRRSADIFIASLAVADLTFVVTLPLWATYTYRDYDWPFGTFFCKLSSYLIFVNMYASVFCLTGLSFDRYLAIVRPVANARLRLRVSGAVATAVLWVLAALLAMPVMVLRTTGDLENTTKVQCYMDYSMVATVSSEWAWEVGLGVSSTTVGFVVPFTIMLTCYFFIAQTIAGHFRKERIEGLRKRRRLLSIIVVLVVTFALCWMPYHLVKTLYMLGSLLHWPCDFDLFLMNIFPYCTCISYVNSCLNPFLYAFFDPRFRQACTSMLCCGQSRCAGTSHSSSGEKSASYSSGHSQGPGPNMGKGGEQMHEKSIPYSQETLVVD"}, "[2]": {"target": "T1, full-length human APLNR (hAPLNR)", "remark": "listed apart in the source"}, "[3]": {"target": "T1, full-length human APLNR (hAPLNR)", "remark": "listed apart in the source"}, "[4]": {"target": "T2, human Apelin receptor (hAPLNR) of PathHunter eXpress AGTRL1 CHO-K1 beta-Arrestin cells (human, UniProt P35414 1-380)", "T2 sequence": "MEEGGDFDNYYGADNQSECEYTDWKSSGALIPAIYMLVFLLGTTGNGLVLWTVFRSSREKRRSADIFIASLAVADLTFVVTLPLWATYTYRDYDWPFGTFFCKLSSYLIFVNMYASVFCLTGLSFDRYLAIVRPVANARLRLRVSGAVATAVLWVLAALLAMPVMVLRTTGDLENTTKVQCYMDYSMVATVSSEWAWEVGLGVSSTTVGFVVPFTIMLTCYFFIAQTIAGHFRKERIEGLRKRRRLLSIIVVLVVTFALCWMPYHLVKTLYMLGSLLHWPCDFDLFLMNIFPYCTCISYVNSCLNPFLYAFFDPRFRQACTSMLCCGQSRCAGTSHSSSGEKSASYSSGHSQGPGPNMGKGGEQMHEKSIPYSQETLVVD"}, "[5]": {"target": "T1, full-length human APLNR (hAPLNR)", "remark": "listed apart in the source"}},
  "data": [
    {"binder": "H2aM9222N (antibody, mouse IgG2a, V domains shown) VH: EVQLVESGGGLVQPGGSLRLSCAASGFTFSNYWMSWVRQAPGKGLEWVANIKQDGSERYYVGSVKGRFTISRGDAENSLYLQMNSLRAEDTAVYYCARDRFGYSAYDKGVRYYYGMDVWGQGTTVTVSS VL: DIQMTQSPSSLSASVGDRVTITCRASQGIRNDLGWYQQKPGKAPKRLIYAASSLQSGVPSRFSGSGSGTEFTLTISSLQPEDFATYYCLQHNSYPRTFGQGTKVEIK", "values": [
      {"measurement": "Activating EC50 (M), ratio of pERK1/2 to total ERK, CHO/hAPLNR cells", "setting": "[1]", "value": "4.79e-08", "unit": "M"}
    ]},
    {"binder": "H2aM9228N (antibody, mouse IgG2a, V domains shown) VH: EVQLVESGGGLVQPGGSLRLSCAASGFTFSNYWMSWVRLAPGKGLEWVANIKQDGSERYYVGSVKGRFTISRGDAKNSLYLQMNSLRAEDTAVYYCARDRFGYSAFDKGVRYYYGMDVWGQGTTVTVSS VL: DIQMTQSPSSLSASVGDRVTITCRASQGIRNDLGWYQQKPGKAPKRLIYAASSLQSGVPSRFSGSGSGTEFTLTISSLQPEDFATYYCLQHNSYPRTFGQGTKVEIK", "values": [
      {"measurement": "Activating EC50 (M), ratio of pERK1/2 to total ERK, CHO/hAPLNR cells", "setting": "[1]", "value": "6.41e-08", "unit": "M"}
    ]},
    {"binder": "H4H9093P-APN10-(G4S)3 (antibody, V domains shown) VH: EVQLVESGGGLVKPGGSLRLSCAASGITFSNAWMSWVRQAPGKGLEWVGRFKGKADGGTVDYAAPVKGRFTISRDDSKNTLYLQMNSLKNEDTAVYYCTTGRITMVRGVLGYWGQGTLVTVSS VL: not shown", "values": [
      {"measurement": "IC50 [M], in the presence of 100 pM Apelin (7.5 uM Forskolin), CRE-luc", "setting": "[2]", "value": "3.2e-08", "unit": "M"},
      {"measurement": "EC50 [M] (7.5 uM Forskolin), CRE-luc", "setting": "[3]", "value": "1.4e-09", "unit": "M"},
      {"measurement": "% Activation at 500 nM antibody or Apelin-antibody fusion, PathHunter beta-Arrestin assay", "setting": "[4]", "value": 5, "unit": "%"},
      {"measurement": "EC50 [M], PathHunter beta-Arrestin assay", "setting": "[4]", "value": "6.5e-09", "unit": "M"}
    ]},
    {"binder": "H4H9092P (antibody, human IgG4, V domains shown) VH: EVQLVESGGGLVKPGGSLRLSCAASGITFSNAWMSWVRQAPGKGLEWVGRIKSKVDGGTIDYAAPVKGRFTISRDDSKNTLYLQMNSLKTEDTAVYYCTTGRITMVRGVLGYWGQGTLVTVSS VL: not shown", "values": [
      {"measurement": "% Inhibition at 100 nM mAb, in the presence of 100 pM Apelin (at 10 uM Forskolin), CRE-luc", "setting": "[5]", "value": 5, "unit": "%"}
    ]},
    {"binder": "H2aM9232N (antibody, mouse IgG2a, V domains shown) VH: QVKLVESGGGVVQPGRSLRLSCAASGFTFSNYVIHWVRQAPGKGLEWVAVIWYDGSNKYYADSVKGRFTISRDNSKNTLYLQMNSLRAEDTAVYYCARDRVVRGVDYYYYYGLDVWGQGTSVTVSS VL: EIVMTQSPATLSVSPGERATLSCRASQSVRSNLAWYQQKPGQAPRLLIYGASSRATGIPARFSGTGSGTEFTLTISSLQSDDFAVYYCQQYNKWPRTFGQGTKVEIK", "values": [
      {"measurement": "Inhibiting IC50 (M), ratio of pERK1/2 to total ERK, CHO/hAPLNR cells", "setting": "[1]", "value": "2.09e-07", "unit": "M"}
    ]}
  ]
}
